Results from US20240002497A1 (Merck Sharp & Dohme, published 2024).
Like-named read-outs stand apart in the source and are kept apart here. One block for each binder: values may come before it.

Assays:
rhNav1.7α + β1-β2-β3 [1] = target: rhNav1.7α + β1-β2-β3 (rhesus monkey); test: cell-based or functional assay
huNav1.7α + β1 [2] = target: huNav1.7α + β1 (human); test: cell-based or functional assay
rhNav1.7α + β1-β2-β3 [3] = target: rhNav1.7α + β1-β2-β3 (rhesus monkey); test: cell-based or functional assay; remark: listed apart in the source
huNav1.7α + β1 [4] = target: huNav1.7α + β1 (human); test: cell-based or functional assay; remark: listed apart in the source
huNav1.7α + β1-β2-β3 [5] = target: T1, huNav1.7α + β1-β2-β3 (human, UniProt Q15858 1-1988; A5A6L6 19-218; O60939 30-215; Q2KI11 23-215); test: binding FACS, CHO FlpIn
T1 construct: also called huNav1.7-beta1-beta2-beta3; huNav1.7-β1-β2-β3
Outline: (§1)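 Cells are first suspended in FACS buffer at 1×10^5 per well. Next, FLAG3-tagged ISVD is added for 30 minutes at 4° C, and binding is then detected with murine anti-Flag. Finally, samples go into 1 μg/mL propidium iodide before flow cytometry.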

rhNav1.7α + β1-β2-β3 [6] = target: T2, rhNav1.7α + β1-β2-β3 (rhesus monkey); test: binding FACS, CHO FlpIn
T2 construct: also called rhNav1.7-beta1-beta2-beta3; rhNav1.7-β1-β2-β3
Outline: as §1

muNav1.7α [7] = target: T3, muNav1.7α (murine, UniProt Q62205 1-1984); test: binding FACS, HEK JmpIn
T3 construct: HEK JmpIn cells; also called murine Nav1.7α
Outline: as §1

huNav1.7α + β1-β2-β3 [8] = target: T1, huNav1.7α + β1-β2-β3; test: binding FACS, CHO FlpIn; remark: listed apart in the source
Experimental: (§2) Binding of the ISVDs to cell-expressed Nav1.7α was detected via murine anti-Flag (Sigma, catalog #F1804). Briefly, cells were resuspended in FACS buffer (PBS, 10% FBS, NaN₃) and transferred to a 96-well V-bottom plate at 1×10^5 cells/well. Purified FLAG3-tagged ISVD was diluted in FACS buffer and added to the cells for 30 minutes at 4° C. […] Prior to the read-out, the samples were resuspended in 1 μg/mL propidium iodide (Sigma, catalog #P4170) to exclude dead cells. Between each step, the cells were centrifuged for 5 minutes at 200 grams and washed with 100 μL/well FACS buffer.

rhNav1.7α + β1-β2-β3 [9] = target: T2, rhNav1.7α + β1-β2-β3; test: binding FACS, CHO FlpIn; remark: listed apart in the source
Experimental: as §2

muNav1.7α [10] = target: T3, muNav1.7α; test: binding FACS, HEK JmpIn; remark: listed apart in the source
[11] = target: T4, huNav1.7α + β1 (human Nav1.7α co-expressed with Navβ1) (human, UniProt Q15858 1-1988; Q07699 19-218); test: cell-based or functional assay
[12] = target: T5, huNav1.7α (human Nav1.7 alpha subunit, expressed without β subunits) (human, UniProt Q15858 1-1988); test: binding FACS, HEKa cells
T5 construct: also called HEK293 human Nav1.7α; HEKa Nav1.7α

[13] = target: T5, huNav1.7α (human Nav1.7 alpha subunit, …); test: binding FACS, HEKa cells; remark: listed apart in the source
[14] = target: T4, huNav1.7α + β1 (human Nav1.7α …); test: binding FACS, HEKa/β1 cells
[15] = target: T4, huNav1.7α + β1 (human Nav1.7α …); test: binding FACS, HEKa/β1 cells; remark: listed apart in the source
[16] = target: T6, huNav157 chimera 14 + β1-β2-β3 (human); test: binding FACS, HEK FlpIn cells
T6 construct: Chimera of huNav1.7α (extracellular loops and transmembrane helices) and huNav1.5α (intracellular loops); also called Nav157ch14-β1-β2-β3; huNav157 chimera 14-beta1-beta2-beta3

huNav157 chimera 14 [17] = target: T7, huNav157 chimera 14 (human); test: binding FACS, HEK FlpIn cells
T7 construct: Chimera without β subunits; also called Nav157ch14

[18] = target: T6, huNav157 chimera 14 + β1-β2-β3; test: binding FACS, HEK FlpIn cells; remark: listed apart in the source
huNav157 chimera 14 [19] = target: T7, huNav157 chimera 14; test: binding FACS, HEK FlpIn cells; remark: listed apart in the source
[20] = target: T5, huNav1.7α (human Nav1.7 alpha subunit, …); test: binding FACS, huNav1.7α without β; minus = lower than reference
[21] = target: T5, huNav1.7α (human Nav1.7 alpha subunit, …); test: binding FACS, huNav1.7α without β; minus = weaker than reference
[22] = target: T8, rhNav1.7α + β1-β2-β3 (rhesus Nav1.7α co-expressed with Navβ1, Navβ2 and Navβ3 on cells) (rhesus monkey (α subunit); β subunits …); test: cell-based or functional assay
[23] = target: huNav1.7α + β1 on HEK cells (human, UniProt Q15858 1-1988; Q07699 19-218); test: cell-based or functional assay
[24] = target: T9, huNav1.7α + β1-β2-β3 (human Nav1.7α co-expressed with human Navβ1, Navβ2 and Navβ3 on cells) (human); test: binding FACS, CHO FlpIn cells
T9 construct: also called huNav1.7-beta1-beta2-beta3; CHO FlpIn huNav1.7α + β1-β2-β3
Outline: as §1

[25] = target: T8, rhNav1.7α + β1-β2-β3 (rhesus Nav1.7α …); test: binding FACS, CHO FlpIn cells
Outline: as §1

[26] = target: T9, huNav1.7α + β1-β2-β3 (human Nav1.7α …); test: binding FACS, CHO FlpIn cells; remark: listed apart in the source
Experimental: as §2

[27] = target: T8, rhNav1.7α + β1-β2-β3 (rhesus Nav1.7α …); test: binding FACS, CHO FlpIn cells; remark: listed apart in the source
Experimental: as §2

[28] = target: T10, huNav1.7α + β1-β2-β3 (human Nav1.7α co-expressed with Navβ1, Navβ2 and Navβ3) (human); test: binding FACS; minus = lower activity than reference
T10 construct: also called huNav1.7-beta1-beta2-beta3

[29] = target: T11, muNav1.7α (murine Nav1.7α) (murine, UniProt Q62205 1-1984); test: as above
T11 construct: HEK Jmp-In cells

[30] = target: T12, rhNav1.7α + β1-β2-β3 (rhesus Nav1.7α co-expressed with Navβ1, Navβ2 and Navβ3) (rhesus monkey); test: binding FACS; plus = higher activity than reference
T12 construct: also called rhNav1.7-beta1-beta2-beta3

[31] = target: T11, muNav1.7α (murine Nav1.7α); test: as above
rhNav1.7α + β1-β2-β3 [32] = target: T2, rhNav1.7α + β1-β2-β3; test: cell-based or functional assay; remark: listed apart in the source
huNav1.7α + β1 [33] = target: huNav1.7α + β1 (human); test: cell-based or functional assay; remark: listed apart in the source
huNav1.7α + β1-β2-β3 [34] = target: T1, huNav1.7α + β1-β2-β3; test: competition FACS vs EC25 of 275B05(N93R), CHO FlpIn
rhNav1.7α + β1-β2-β3 [35] = target: T2, rhNav1.7α + β1-β2-β3; test: as above

IC50 [M], electrophysiology, HEK cells (rhNav1.7α + β1-β2-β3 [1]): 3.6e-08 M | IC50 [M], electrophysiology, HEK cells (huNav1.7α + β1 [2]): 1.1e-08 M | Qpatch IC50 (rhNav1.7α + β1-β2-β3 [3]): 166 nM | Qpatch IC50 (huNav1.7α + β1 [4]): 7 nM | Bmax (huNav1.7α + β1-β2-β3 [5]): 100% | EC50 (huNav1.7α + β1-β2-β3 [5]): 4.2 nM | Bmax (rhNav1.7α + β1-β2-β3 [6]): 96% | EC50 (rhNav1.7α + β1-β2-β3 [6]): 9.3 nM | Bmax (muNav1.7α [7]): 18% | EC50 (muNav1.7α [7]): 48 nM | EC50 (huNav1.7α + β1-β2-β3 [8]): 4.2 nM | EC50 (rhNav1.7α + β1-β2-β3 [9]): 9.3 nM | EC50 (muNav1.7α [10]): 48 nM
B1: F010302363 (VHH)
VHH: EVQLVESGGGVVQPGGSLRLSCAASHRAFIRDVFTGWYRQAPGKQRELVARIYEGGNTQYADSVKGRFTISRDNAKKTVYLQMNSLRPEDTALYYCLFSGTISTGREYRSGDYWGQGTLVTVSS

IC50 [M], electrophysiology on HEK huNav1.7α + β1 cells [11]: 3.2e-08 M | Bmax [12]: 100% | EC50 [12]: 1.9 nM | EC50 [13]: 1.9 nM | EC50 [14]: 2 nM | EC50 [15]: 2 nM | EC50 [16]: 2.3 nM | Bmax (huNav157 chimera 14 [17]): 100% | EC50 (huNav157 chimera 14 [17]): 2.7 nM | EC50 [18]: 2.3 nM | EC50 (huNav157 chimera 14 [19]): 2.7 nM
B2: F010302391 (VHH)
VHH: EVQLVESGGGVVQPGGSLRLSCAASGRILRIGYMRWYRQAPGKQREFVARITGGSATGYADSVKGRFTISRDNAKNTVYLQMNSLRPEDTALYYCEALVTASVRGGSIHSGTYWGQGTLVTVSS
notes: also called F0103387G05(L11V, A14P, D23A, H37Y, G40A, A41P, D53G, D54G, D58G, N82bS, N83R, V89L, R105Q)-FLAG3-HIS6

Bmax [12]: 25% | EC50 [12]: 89 nM | EC50 [14]: 3.2 nM | EC50 [16]: 3.4 nM | Bmax (huNav157 chimera 14 [17]): 30% | EC50 (huNav157 chimera 14 [17]): 210 nM | Bmax fold change compared to reference [20]: -4 fold | EC50 fold change compared to reference [21]: -20 fold
B3: F010301648 (VHH)
VHH: EVQLVESGGGVVQPGGSLRLSCDASGRILRIGYMRWHRQGAGKQREFVARITDDSATDYADSVKGRFTISRDNAKNTVYLQMNSLRPEDTALYYCNALVTASVRGGSIHSGTYWGQGTLVTVSS
notes: also called F0103387G05(L11V, A14P, N82bS, N83R, V89L, E93N, R105Q); E93N

IC50 [M], in vitro electrophysiology, HEK rhNav1.7α + β1-β2-β3 [22]: 3e-09 M | IC50 [M], in vitro electrophysiology, HEK huNav1.7α + β1 [23]: 2.2e-08 M | Bmax [24]: 100% | EC50 [24]: 6.8 nM | Bmax [25]: 100% | EC50 [25]: 4.5 nM | EC50 [26]: 6.8 nM | EC50 [27]: 4.5 nM
B4: F010302383 (VHH)
VHH: EVQLVESGGGVVQPGGSLRLSCAASGPVFNINRMAWYRQAPGKQRELVAYVTPTGDISYADSVKGRFTISRGGSKRVYLQMNSLRPEDTALYYCRALLQPSSYSGTRTYWGQGTLVTVSS
notes: also called F0103387G04(L11V, A12V, K33R, R39Q, S50Y, S56D, T60A, D72G, W78V, S79Y, T83R, V89L, N93R, D99S, N100cG) + FLAG3-HIS6

EC50 fold change compared to reference [28]: -2 fold | EC50 fold change compared to reference [29]: -4 fold
B5: F010301877 (VHH)
VHH: EVQLVESGGGVVQPGGSLRLSCATTSRAFIRDVFTGWYRRVPGKERELVARIYNGGNTNYADFAKGRFTISRDNAKNMVYLQMNSLRPEDTALYYCLFSGTINTGREYRSGDYWGQGTLVTVSS
notes: also called F0103464B09(L11V, S68T, K76N, T79Y, R81Q, S82aN, N82bS, K83R, G88A, V89L); K76N

EC50 fold change compared to reference [30]: 3 fold | EC50 fold change compared to reference [31]: 3 fold
B6: F010301893 (VHH)
VHH: EVQLVESGGGVVQPGGSLRLSCATTSRAFIRDVFTGWYRRVPGKQRELVARIYNGGNTNYADFAKGRFTISRDNAKKMVYLQMNSLRPEDTALYYCLFSGTINTGREYRSGDYWGQGTLVTVSS
notes: also called F0103464B09(L11V, E44Q, S68T, T79Y, R81Q, S82aN, N82bS, K83R, G88A, V89L); E44Q

QPatch electrophysiology IC50 [M], HEK cells (rhNav1.7α + β1-β2-β3 [32]): 1.8e-08 M | QPatch electrophysiology IC50 [M], HEK cells (huNav1.7α + β1 [33]): 2.1e-08 M | IC50 (huNav1.7α + β1-β2-β3 [34]): 30 nM | IC50 (rhNav1.7α + β1-β2-β3 [35]): 16 nM
B7: F010301452 (VHH)
VHH: EVQLVESGGGLVQPGGSLRLSCAASGPVFNINSMAWYRRAPGKQRELVAYSTPGWDWNYADSVKGRFTISRDNAKRVYLQMNSLTPEDTAVYYCRWLLQPSIYDISRTYWGQGTLVTVSS
notes: Tagless version of F010300659 by its description; also called F0103275B05(S27P, I28V, S50Y, N53P, G55W, S56D, T57W, N93R, A94W)
